Results taken from patent US20240294945A1.

Key:
Test in all cases: cell-based or functional assay
[1] = target: right-TALE:G1397C (the C-terminal G1397 DddAtox half fused to the C-terminus of the right-TALE array (Burkholderia cenocepacia))
[2] = target: TALE-free DddAtox half G1397-C (Burkholderia cenocepacia)
[3] = target: TALE-free DddAtox half G1333-N (Burkholderia cenocepacia) (UniProt P0DUH5)
[4] = target: right-TALE:G1333-C, mtND1-targeted DdCBE subunit (Burkholderia cenocepacia)
[5] = target: TALE-free DddAtox half G1333-C (Burkholderia cenocepacia) (UniProt P0DUH5)
[6] = target: TALE-free DddAtox half G1397-N (Burkholderia cenocepacia) (UniProt P0DUH5)

“left-TALE:G1397N (the N-terminal G1397 DddAtox half fused to the C-terminus of the left-TALE array),” gave a cytosine-to-thymine editing efficiency at C11 of the mtND1 target, HEK293T [1] of 60.7% and a base editing efficiency at the mtND1 target, HEK293T [2] of 31%.
Substance “right-TALE:G1333-C, mtND1-targeted DdCBE subunit” has a base editing efficiency at position C8 of the mtND1 target, HEK293T [3] of 18.1%.
For “left-TALE:G1333-N, mtND1-targeted DdCBE subunit”, the base editing efficiency at position C8 of the mtND1 target, HEK293T [4] was 56.1% and the base editing efficiency at position C8 of the mtND1 target, HEK293T [5] was 32.7%.
With “right-TALE:G1397C (the C-terminal G1397 DddAtox half fused to the C-terminus of the right-TALE array” the base editing efficiency at the mtND1 target, HEK293T [6] was 8.1%.
